Results from paper doi:10.1101/589580.

Each substance was assayed against full-length ZO1 with C-terminal mEGFP (UniProt Q07157) (assay: client partitioning into phase-separated droplets).
full-length ZO1 with C-terminal mEGFP, sequence (Q07157 whole entry): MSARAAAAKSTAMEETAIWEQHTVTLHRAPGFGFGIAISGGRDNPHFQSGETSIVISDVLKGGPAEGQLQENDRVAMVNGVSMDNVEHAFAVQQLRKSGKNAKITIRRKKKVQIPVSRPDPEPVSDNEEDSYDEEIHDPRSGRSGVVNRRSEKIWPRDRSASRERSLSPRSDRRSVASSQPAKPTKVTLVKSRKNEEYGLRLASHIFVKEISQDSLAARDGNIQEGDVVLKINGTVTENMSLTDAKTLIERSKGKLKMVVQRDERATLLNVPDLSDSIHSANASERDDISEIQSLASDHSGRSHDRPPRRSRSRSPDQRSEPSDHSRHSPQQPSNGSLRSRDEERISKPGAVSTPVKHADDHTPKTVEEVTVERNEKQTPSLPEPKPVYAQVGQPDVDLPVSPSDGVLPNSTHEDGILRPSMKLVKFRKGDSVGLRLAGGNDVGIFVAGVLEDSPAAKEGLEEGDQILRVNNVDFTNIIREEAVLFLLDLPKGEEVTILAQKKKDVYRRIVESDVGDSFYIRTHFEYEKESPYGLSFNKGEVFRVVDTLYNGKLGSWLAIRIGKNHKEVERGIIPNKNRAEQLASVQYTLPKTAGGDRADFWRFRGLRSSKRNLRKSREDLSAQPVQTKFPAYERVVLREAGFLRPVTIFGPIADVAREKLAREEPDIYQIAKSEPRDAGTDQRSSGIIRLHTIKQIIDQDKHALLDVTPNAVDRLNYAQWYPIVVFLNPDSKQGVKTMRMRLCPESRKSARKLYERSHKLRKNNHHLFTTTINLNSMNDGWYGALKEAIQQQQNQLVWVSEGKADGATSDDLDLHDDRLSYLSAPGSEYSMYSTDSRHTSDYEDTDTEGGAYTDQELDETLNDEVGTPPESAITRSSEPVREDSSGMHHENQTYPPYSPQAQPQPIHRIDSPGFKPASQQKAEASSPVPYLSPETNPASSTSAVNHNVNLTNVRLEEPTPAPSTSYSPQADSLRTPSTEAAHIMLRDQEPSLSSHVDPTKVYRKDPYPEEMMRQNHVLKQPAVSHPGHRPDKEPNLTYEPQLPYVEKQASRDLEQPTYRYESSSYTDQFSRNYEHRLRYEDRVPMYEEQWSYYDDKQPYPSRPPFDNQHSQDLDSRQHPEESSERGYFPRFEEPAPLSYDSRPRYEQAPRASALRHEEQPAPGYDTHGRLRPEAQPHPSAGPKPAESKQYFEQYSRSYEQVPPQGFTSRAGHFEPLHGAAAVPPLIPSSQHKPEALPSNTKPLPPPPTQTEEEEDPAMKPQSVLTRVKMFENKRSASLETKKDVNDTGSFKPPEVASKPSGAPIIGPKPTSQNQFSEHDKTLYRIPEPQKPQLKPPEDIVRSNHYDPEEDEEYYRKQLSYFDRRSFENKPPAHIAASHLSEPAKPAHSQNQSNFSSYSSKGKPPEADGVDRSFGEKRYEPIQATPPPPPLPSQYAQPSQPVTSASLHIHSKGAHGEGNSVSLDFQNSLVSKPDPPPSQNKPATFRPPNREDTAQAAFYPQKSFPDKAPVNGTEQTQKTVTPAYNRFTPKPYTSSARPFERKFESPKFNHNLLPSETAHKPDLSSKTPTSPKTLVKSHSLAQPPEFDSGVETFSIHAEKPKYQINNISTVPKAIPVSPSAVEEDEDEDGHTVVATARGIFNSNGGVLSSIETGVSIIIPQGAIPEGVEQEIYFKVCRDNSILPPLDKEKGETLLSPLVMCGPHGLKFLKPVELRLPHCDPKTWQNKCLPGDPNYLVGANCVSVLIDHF

partitioning (client fluorescence inside/outside ZO1 droplets) [fold] | Substance
9 | C-terminal domain of nectin-1 (from UniProt Q15223 31-517) (domain or fragment)
22 | monomeric actin (from UniProt P60709 1-375) (natural protein)
21 | C-terminal domain of occludin (from UniProt Q16625 1-522) (domain or fragment)
